Assays:
[1] = target: TAG-72 positive bovine submaxillary mucin (BSM) (bovine); assay: SPR (BIAcore X), control Fab over immobilised BSM, BSA reference
[2] = target: TAG-72 expressed on the cell surface of Jurkat cells (human); assay: flow cytometry on Jurkat cells expressing cell-surface TAG-72, 1 ug antibody, FITC-conjugated mouse anti-human antibody
[3] = target: TAG-72 expressed on the cell surface of Jurkat cells (human); assay: flow cytometry on Jurkat cells expressing cell-surface TAG-72, antibody amount not given, FITC-conjugated mouse anti-human antibody

Fab derived from human IgG
koff [1]: 0.0138 s⁻¹

Fab derived from murine CC49
koff [1]: 0.000104 s⁻¹

HuCC49 (antibody)
% Gated, marker M1 [2]: 70.8% | % Gated, marker M2 [2]: 29.4% | % Total, marker M1 [2]: 60.6% | % Total, marker M2 [2]: 25.2% | Mean, marker All [2]: 18 | Mean, marker M1 [2]: 4.36 | Mean, marker M2 [2]: 50.9

cCC49 (antibody)
% Gated, marker M1 [2]: 27.2% | % Gated, marker M2 [2]: 73% | % Total, marker M1 [2]: 12.2% | % Total, marker M2 [2]: 32.7% | Mean, marker All [2]: 41.6 | Mean, marker M1 [2]: 5.92 | Mean, marker M2 [2]: 54.8

human immunoglobulin G (HuIgG) control (antibody)
% Gated, marker M1 [3]: 99.7% | % Gated, marker M2 [3]: 0.31% | % Total, marker M1 [3]: 92.1% | % Total, marker M2 [3]: 0.29% | Mean, marker All [3]: 3.54 | Mean, marker M1 [3]: 3.49 | Mean, marker M2 [3]: 20.5

Source: patent US20060165680A1
